Like-named read-outs stand apart in the source and are kept apart here.
Tests used:
[1] = target: the molecule itself; assay: AUC + other: circular dichroism
[2] = target: the molecule itself; assay: AUC + other: circular dichroism; remark: listed apart in the source
AUC = target: the molecule itself; assay: AUC

Row | Protein | Kd [1] [µM] | Kd [2] [µM] | stoichiometry N (AUC)
1 | MERS nucleocapsid LRS peptide 197-238 (peptide) peptide: not shown | 110 |  | 
2 | MAGNGGDAALALLLLDRLNQLESKMSGKGQQQQGQTV [SARS-CoV-2 N-protein leucine-rich sequence peptide N:210-246 (NLRS)] |  | 810 | 3
3 | RQPASTVKPDMAEEIAALVLAKLGKDAGQPKQV (also called murine hepatitis virus) [MHV nucleocapsid LRS peptide 223-255] | 800 |  | 
4 | MASGGGETALALLLLDRLNQLESKVSGKGQQQ [SARS-CoV-1 nucleocapsid LRS peptide 211-242] | 500 |  | 
5 | TRSDSNQSSSDLVAAVTLALKNLGFDNQSKSPSSSGT (also called human coronavirus NL63) [NL63 nucleocapsid LRS peptide 174-210] | 140 |  | 
6 | 229E-related bat coronavirus nucleocapsid LRS peptide 170-221 (peptide) peptide: NERLPKSNSKQSNQDDIMAAVAAALEKLGFERPNDASQPQKKQNKGTPKPSR | 290 |  | 

From publication PMC10075959 (Science Advances, 2023)
